Experimental data taken from article PMC9142589, “Automated vitrification of cryo-EM samples with controllable sample thickness using suction and real-time optical inspection” (Nature Communications, 2022).

Molecular target: the molecule itself
Assay: cryo-EM structure; single particle analysis; apoferritin at 2.5 µM in 150 mM NaCl, 25 mM Tris pH 7.5, 2 mM DTT; 91,000 particles; X-ray model PDB 6RJH fitted into the map

B1: Horse spleen apoferritin (natural protein)
chain: SQIRQNYSTEVEAAVNRLVNLYLRASYTYLSLGFYFDRDDVALEGVCHFFRELAEEKREGAERLLKMQNQRGGRALFQDLQKPSQDEWGTTLDAMKAAIVLEKSLNQALLDLHALGSAQADPHLCDFLESHFLDEEVKLIKKMGDHLTNIQRLVGSQAGLGEYLFERLTLK
notes: horse spleen apoferritin; the X-ray model of horse spleen apoferritin (PDB 6RJH) was fitted into the map; source: bought: Sigma (9013-31-4), purified by gel filtration (Superdex 200 Increase 3.2/300) immediately before vitrification
  binding result: binds
